Assay results: patent WO2008131575A2 (dated 2008)

Target: T1, human ALK epitope peptide (amino acids 391-406 of the ALK protein) (human)
T1 construct: the underscore is a remnant of the underlining; In the yeast screen it was fused to LexA; in the ELISA it is called the Alk LBD peptide; also called Alk LBD peptide; AIk LBD
T1 peptide: GRIGRPDNPFRVALEY
Experiment: ELISA (Fig. 5)

B1: scFv 28.11 (scFv)
scFv: QSVLTQPPSVSAAPGQKVTISCSGSTSNIGDNYVSWYQQLPGTAPQLLIYDNTKRPSGIPDRFSGSKSGTSATLGITGLQTGDEADYYCATWDNDKWGVVFGGGTKLEVLGGGGGSGGGGSGGGGSSGGGSEVQLVESGGGLVQPGGSLRLSCAASGFTFSSYAMSWVRQAPGKGLEWVSAIETSSGSTYYADSVKGRFTISRDNSKNTLYLQMNSLRAEDTAVYYCARDAWLDVLSDGFDYWGQGTLVTVSS
B1 showed a Kd of 2 to 3 nM.
